This passage reports Kd results from PMC9755527.

As a reminder, the Kd is a measure of binding affinity in units of concentration.

One data set has as its target CccR201-380 (Yersinia pseudotuberculosis, UniProt Q666X7 201-380). In words: ITC. To be noted: protein: recombinant; tags: His6 (EMSA).
For the next data set, the target named is CccR1-220 (Yersinia pseudotuberculosis, UniProt Q666X7 1-220). As to the kind of experiment: ITC. To be noted: protein: recombinant; tags: His6 (pET28a) or GST (pGEX6p-1).
Another data set deals with CccR (Yersinia pseudotuberculosis, UniProt Q666X7 1-380). In words: ITC; stoichiometry 1:2. The settings on record: protein: recombinant; tags: His6 (pET28a) or GST (pGEX6p-1); His6 stated for EMSA; chain copies: 2. In general terms: Isothermal titration calorimetry measures the heat released or taken up as one component is titrated into another.

B1: PcccR 100-bp ITC probe (dsDNA)
DNA 1: ATATTCAATCGGATGTATCGCCACGGATTTTTGAGATAATCATAAAGTTACTTTTGAGATAATCTACAAATGATAATCTGTTAACATAATGGCTATAAAG
DNA 2: CTTTATAGCCATTATGTTAACAGATTATCATTTGTAGATTATCTCAAAAGTAACTTTATGATTATCTCAAAAATCCGTGGCGATACATCCGATTGAATAT
For B1, the results for the equilibrium dissociation constant (Kd) in the data set with CccR201-380, with CccR1-220 and with CccR were 6.13 ± 0.11 µM, 1530 ± 130 µM and 2.56 ± 0.12 µM, respectively.
